Results: article PMC10987364

What was measured:
[1] = target: L-rhamnose isomerase (L-RIM) (Chloroflexus sp. origin (hot spring metagenome)); assay: native gel or EMSA; 10% Native PAGE of purified L-RIM, Coomassie stained; native mass against a marker
[2] = target: L-rhamnose isomerase (L-RIM) (Chloroflexus sp. origin (hot spring metagenome)); assay: SEC; Superdex 200 increase 10/300 GL, 50 mM Tris-Cl pH 7.0, 150 mM NaCl, 0.5 mL/min; calibrated with ovalbumin, conalbumin, aldolase and ferritin

L-rhamnose isomerase (L-RIM) (enzyme) was tested, and the stoichiometry N [1] was 4 and the stoichiometry N [2] was 4.
